Measurements as given in paper PMC4775424 (Structure (London, England : 1993), 2016).
Entries after “also recorded” stand apart in the source; their conditions may differ.

B1: Arabidopsis thaliana ORC1b BAH-PHD cassette (domain or fragment)
chain: SETIKKTKKKKRVYYNKVEFDETEFEIGDDVYVKRREDSNSDEEEDPEIEDCQICFKSDTNIMIECDDCLGGFHLKCLKPPLKEVPEGDWICQFCEVKKSGQSQTLDLPKPPEGKKLARTMREKLLSGDLWAARIDKLWKEVDDGVYWIRARWYMIPEETVSGRQPHNLKRELYLTNDFADIEMECILRHCSVKCPKEFSKASNDGDDVFLCEYEYDVHWRSFKRLAELADG

What was measured:
[1] = tested on: mouse ORC1 BAH domain; details: mouse version; four-residue aromatic cage; ref Kuo et al., 2012; cited from earlier work
[2] = tested on: human ORC1 BAH domain; details: human version; ref Kuo et al., 2012; cited from earlier work
[3] = target: H3 peptide dimethylated at K4; experiment: ITC
[4] = target: H3 peptide monomethylated at K4; experiment: ITC
[5] = target: unmodified H3(1-15) peptide; experiment: ITC

Row | Molecule | recognition by ORC1 BAH domain [1] | recognition by ORC1 BAH domain [2] | fold decrease of the binding against the unmodified H3 peptide [3] | fold decrease of the binding against the unmodified H3 peptide [4] | Kd [5]
1 | H4K20me2: histone mark H4K20me2 / H4K20me2 peptide bound by metazoan ORC1 BAH domains | can use a four-residue aromatic cage to recognize the methyllysine of H4K20me2; also recorded: specifically recognize | specifically recognize | – | – | –
2 | B1 | – | – | 10 fold | 4 fold | 3000 nM
